# Experiments:
# Assay in all cases: cleavage_in_vitro
# [1] = tested on: T1, HpyF30I restriction endonuclease (Helicobacter pylori RFL30)
# T1 sequence: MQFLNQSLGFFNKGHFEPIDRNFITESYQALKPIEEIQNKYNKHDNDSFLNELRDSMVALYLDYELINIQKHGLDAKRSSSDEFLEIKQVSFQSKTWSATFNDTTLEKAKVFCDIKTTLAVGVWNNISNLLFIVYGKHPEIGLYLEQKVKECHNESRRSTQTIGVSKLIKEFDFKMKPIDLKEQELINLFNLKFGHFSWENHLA
# [2] = molecular target: T2, TaqI restriction endonuclease (Thermus aquaticus) (UniProt P14386); settings: 65 C
# T2 sequence: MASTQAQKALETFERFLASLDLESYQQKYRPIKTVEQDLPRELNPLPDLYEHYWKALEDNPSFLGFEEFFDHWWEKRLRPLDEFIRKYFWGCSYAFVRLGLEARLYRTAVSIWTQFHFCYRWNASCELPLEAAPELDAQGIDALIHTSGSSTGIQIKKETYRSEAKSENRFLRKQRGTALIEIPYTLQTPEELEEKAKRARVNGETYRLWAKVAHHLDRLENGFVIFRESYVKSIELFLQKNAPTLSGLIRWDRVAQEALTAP
# [3] = tested on: PaeR7I restriction endonuclease
# [4] = about 50% 5mC at the TCGA site, partial, site about 50% methylated
substance,measurement,setting,value
130 bp lambda PCR fragment C,activity,"[1]; with Jurkat genomic DNA, SdaI buffer, 37 C",7 % undigested
same,activity,[2]; with Jurkat genomic DNA,0.7 % undigested
130 bp lambda PCR fragment m5C,activity,"[1]; 5mC in both strands, with Jurkat genomic DNA, SdaI buffer, 37 C",100 % undigested
same,activity,"[2]; 5mC in both strands, with Jurkat genomic DNA",0.7 % undigested
DAPK1 promoter region,activity,"[1]; SdaI buffer, 37 C, qPCR",2 % undigested
same,activity,"[3]; buffer 4, 37 C, qPCR",0.8 % undigested
same,activity,[2]; qPCR,0.7 % undigested
RASSFA1 promoter region,activity,[1]; [4],50 % undigested
same,activity,[3]; [4],50 % undigested
same,activity,"[2]; about 50% 5mC at the TCGA site, qPCR",0.8 % undigested
lambda DNA (dam-),activity,"[1]; SdaI buffer, 15 mM Mg acetate, 37 C, qPCR",0.6 % undigested
same,activity,"[2]; TaqI buffer, qPCR",0.06 % undigested
lambda DNA (dam-) M.SssI methylated,activity,"[1]; 5mC at CpG, both strands, SdaI buffer, 37 C, qPCR",100 % undigested
same,activity,"[2]; 5mC at CpG, both strands, TaqI buffer, qPCR",0.2 % undigested

# — patent publication US20140011196
